Reference: US20250206795

System: T1, Mouse proBDNF-G-CSF-Tr protein
T1 sequence: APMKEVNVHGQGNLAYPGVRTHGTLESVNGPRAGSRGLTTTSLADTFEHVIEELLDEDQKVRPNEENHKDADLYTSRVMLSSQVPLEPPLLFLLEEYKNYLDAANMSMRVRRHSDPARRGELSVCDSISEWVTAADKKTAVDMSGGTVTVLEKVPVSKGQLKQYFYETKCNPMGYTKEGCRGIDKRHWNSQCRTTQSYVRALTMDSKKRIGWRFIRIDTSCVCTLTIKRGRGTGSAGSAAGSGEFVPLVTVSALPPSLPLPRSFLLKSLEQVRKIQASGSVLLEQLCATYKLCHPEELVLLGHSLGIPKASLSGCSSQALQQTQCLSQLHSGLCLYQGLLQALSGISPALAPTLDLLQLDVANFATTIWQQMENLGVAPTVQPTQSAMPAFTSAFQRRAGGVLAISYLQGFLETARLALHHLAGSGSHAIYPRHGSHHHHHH

furin
enzymatic cleavage (SDS PAGE and Western blot with anti-4-His antibodies), 1 Unit furin, 30 C, 4 hours: furin effectively cleaved the proBDNF-G-CSF-Tr molecule to yield BDNF-G-CSF-Tr
